In the supplement of paper PMC12042874:
± gives the uncertainty stated by the source.

Test: amyloid nucleation score (Sup35N fusion, yeast selection) (log enrichment); library NNK1; higher = more nucleation; inactive = no reads after selection
Method in brief: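 Three technical output replicates were used for random libraries. Psi-negative yeast expressing peptides of 20 random codons fused to Sup35N were induced with 100 μM copper sulfate for 24 hours and grown 7 days at 30°C on medium lacking adenine and uracil, and input and output plasmid inserts were Illumina-sequenced, excluding sequences with under 100 input reads. The nucleation score is the DiMSum log enrichment of output over input reads, centred on the mode score of non-aggregating sequences.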

Point of comparison: SVFQVCFWFKYKRR, amyloid nucleation score 0.201 ± 0.43. Against it:
- FRTRGFLHSKVLVRLQYWIK — within error, 0.494 ± 0.5
- VTYTISRELSFCPPITFGTL — within error, 0.777 ± 0.73
- SNYDIWRPILSRWSDREGWV — higher, 1.34 ± 0.36
- VTFVIYNRDNSAEYGVVFC — within error, -0.46 ± 0.71
- WVQGRRTFLVGWRGSQRGPI — within error, -0.995 ± 0.81
- FSSYPLGFRNRRDTVDMTIV — within error, 0.018 ± 0.38
- LGESTGIFFYGEIRPYLNGS — within error, -0.148 ± 0.64
- VVSNTGSFSPVRMR — within error, -0.117 ± 0.42
- GPDRCDRWEPRCCAKSRRER — within error, -0.061 ± 0.42
- CLCDAISYSGIIKDVDKVCE — within error, 0.875 ± 0.93
- WASELVRHHNDKINCSLRCG — within error, -0.253 ± 0.84
- RPSPEGY — within error, 1.37 ± 0.84
- EERVFVYRLWYQSLVRHYEL — within error, -0.204 ± 0.41
- HIQLIYVTIVLESRLSWWRI — within error, 0.934 ± 0.53
- VELSRASNLCQDNIREHMQV — within error, -0.32 ± 0.31
- MIAHLAPINRDAEYFINAIC — within error, -0.236 ± 0.27
- WRMFGGRSEQSFIVPCRLLG — within error, 0.535 ± 1.2
- YWGFGYPMFLNINMCLTSPE — higher, 6.21 ± 0.091
- GIRPNFTVRFGGSWSQRNDR — within error, 0.749 ± 0.47
- RVSRFELAIVSVEGSYWVPE — within error, 0.607 ± 0.36
- MLVAFAYFFGSHVRHWGFVW — within error, 0.224 ± 0.33
- SDYTYAFPCMRGWCWYFAVS — within error, -0.691 ± 1.7
- VGCFLIKSGEQ — within error, -0.385 ± 0.36
- NCRFRVVVRKSGTLLPVWVP — within error, 0.542 ± 1
- GAPRSCGLAD — within error, 0.27 ± 0.63
- FTVVLYLSVVLKFKDAGEEG — higher, 4.09 ± 0.092
- YLCPVRDFNGLYGLVFM — within error, -0.756 ± 1.7
- RKLLSISL — within error, 0.22 ± 0.71
- TLMGQWGWFSSVAYNNAGIV — lower, -1.36 ± 0.86
- VWDSFSHVLVRLGIYLFFYV — within error, 0.763 ± 0.42
- KVPKRKITNFRGMSGFSRYR — within error, 0.985 ± 0.98
- LQNETLSMSMRLLMAYFIKL — within error, 0.13 ± 1.2
- RSGLCFMCSFEKSVSSR — within error, 0.255 ± 0.3
- EYNQG — within error, -0.76 ± 1.2
- SMSHGWGLLDFLWADCWWPK — within error, -0.031 ± 1
- HICTTFCTSMFSRTSQWSGG — within error, 0.673 ± 0.3
- MRVHFLE — within error, 0.136 ± 0.41
- TRCINVYHPLCI — lower, -0.875 ± 0.36
- SLYELPWDNYP — within error, -0.043 ± 1.4
- HSEIHVALYCASVML — higher, 3.38 ± 0.097
- RCNSSSIEWTVCILFDLLFY — within error, -0.122 ± 1
- FCNTLCAFW — higher, 1.91 ± 0.22
- MSYMCLNRYILVGYCWVQTT — within error, 0.312 ± 0.66
- SPWSSNRYVLNSFYLSHPRR — within error, -0.308 ± 0.32
- NYSYSFIPRSKVNGYEYGGA — within error, -0.387 ± 0.32
- INGMEYLEQKIEVL — within error, 0.091 ± 0.42
- PQSFWNARCPCPLNRLNGVW — within error, -0.474 ± 0.34
- FTCRFFVCFGLCGDHEHSPI — higher, 7.561 ± 0.057
- LYCWVFSLSSMESNWLGQHT — within error, -0.012 ± 0.29
- FVINSTIRKVFFGFPDWCMC — within error, -0.135 ± 0.3
- SAPMVFESDPREFAAGMSRL — within error, -0.53 ± 0.39
- SMCNEVDGTDGYAAIGLYMY — within error, -1.65 ± 2.4
- YWICRDTGSYDFCMMGMGKA — within error, 0.335 ± 0.34
- LRYCNMHHRHDSYGLSSYSY — higher, 2.21 ± 0.11
- MSGWG — within error, 0.167 ± 0.27
- VYNAPGCVNRSDLVV — within error, -0.745 ± 2.4
- STCGCRPGLLFWARSPYN — within error, -0.367 ± 0.63
- HWSSFPNVLYIM — within error, -0.106 ± 0.44
- LKWSSGHGKIGSNVWRRVYC — within error, 0.42 ± 1.2
- TQSRPLETGCPQLERSGLLA — within error, -0.692 ± 0.81
- YSTSSEVEVDWLSVSKFVSI — within error, 0.146 ± 0.27
- AQARWCWRLH — within error, 0.963 ± 0.69
- LWRLANWRM — within error, -0.46 ± 0.27
- IYTSLCQRGGMVMHESKYCC — within error, 0.624 ± 0.65
- CTLSYCWWMAQYPDISRLIT — within error, -0.362 ± 0.74
- LYYFCLAINFSLGEGTAFVQ — within error, -0.133 ± 0.84
- GMRVLQIFGTGGGDSNTRGD — within error, 0.84 ± 0.36
- FLKSYLLRC — within error, 0.012 ± 0.63
- GKHGQDFNSYRRVWLKSYLC — within error, 1.07 ± 0.52
- TFIYSRECRRTSVWQPFNNR — within error, -0.704 ± 0.65
- ERVGAGVGSNERRD — within error, 0.646 ± 0.89
- ASYYQWLSLFFLTNRPFFGG — within error, -0.809 ± 1.2
- DSGWRWCNRSTSVGNVNVMR — within error, 0.171 ± 0.43
- VYIYRSVPNTAPAPMIEKKD — within error, -0.048 ± 1.2
- LCAMIPAVGRYWSCVVGHSV — within error, -0.013 ± 1.6
- RGNWIRS — within error, -0.533 ± 0.77
- KCRGCSMMRAS — higher, 1.84 ± 0.5
- LFLCRILYCLWVNVFLLGHE — within error, 0.367 ± 0.32
- SACSESSVIWTNFH — within error, 0.292 ± 0.39
- GFSSMGCSVRNSHTAHGGCG — higher, 1.73 ± 0.17
- GRYWSCEATRLCKYFGCTMR — within error, -0.212 ± 0.48
- LKAGFM — within error, -0.102 ± 0.28
- EGSIMRGWLFICYNLF — within error, -0.244 ± 0.93
- WLSRSSFMKLCSTKFPRWRL — within error, -0.494 ± 1.1
- GALFWVIPIMLLMRSGLLDP — within error, 0.498 ± 0.3
- TFADNF — within error, -1.28 ± 1.1
- CYLKGYA — within error, 0.853 ± 0.52
- GFDFMWGGGFRNSRNRFQLS — within error, 0.428 ± 0.6
- NINPHLLTISFHWLRPQLAP — within error, -0.745 ± 1.7
- INYFRWGDIFVYSNSKSSRL — within error, 0.511 ± 0.17
- LIQLVDRVGGGVFTRDCDAI — within error, -0.368 ± 0.47
- HKSIMAYRN — within error, 0.677 ± 0.68
- ILHQAILRCVSRYGLS — within error, -0.012 ± 0.76
- YNHIEFGWCLLVGFVMRKSR — higher, 3.53 ± 0.12
- HYRYFCGLTYVDSAARLQGG — within error, -1.5 ± 1.8
- LVQVIVHFGIYIISAKGQGT — higher, 3.1 ± 0.15
- LVMCVFLSASVYVFPTHLSS — within error, -1.18 ± 1.4
- WDSLDIHQFNKDMWQTSG — within error, -0.909 ± 0.9
- YWKMRCM — higher, 3.47 ± 0.19
- KSCDSESFYGDTRSFHTDSV — within error, -1.5 ± 1.3
- WGMCFAVPNISTGLNNYTMP — within error, -0.234 ± 0.64
- GSSWYNNPVQGILGGYNL — within error, -0.348 ± 0.47
- RCSGYRFRFTVRRTSLCFVK — within error, -0.447 ± 1.2
- FGYYFVNGIFLYSSVRYDNM — higher, 3.63 ± 0.076
- YLRPGCSSVRSNATMGNSYL — within error, 0.641 ± 0.45
- SSGPVFYKLPRLHCVGSHRH — within error, 0.603 ± 0.5
- GHISIMVHYLFVSTHSSQED — higher, 4.46 ± 0.13
- LSCSFDESW — within error, 0.024 ± 0.24
- LVTNAYTYSSTGIYDYVRPG — within error, 0.093 ± 0.81
- MIKSPTVKGFRMLCSVRGRD — within error, -0.284 ± 0.44
- SEWDFGDCENFKVSYLVVTQ — within error, -0.408 ± 0.4
- LRMKANYVTSAFNRCVLLLG — within error, 0.425 ± 0.41
- NCYSF — within error, 0.055 ± 0.29
- NCVTELYDLRGILVRNLCSG — within error, -0.044 ± 0.21
- EERDFKEPSRLVIIKLTVMF — higher, 3.18 ± 0.12
- AMRGYCRAFQIWVWICGLSL — within error, 0.027 ± 0.86
- FWGNGQRVNSNIQRDVKWDA — within error, -0.199 ± 0.45
- FLPMSLGWVHKQLIFSPRWY — within error, 1 ± 0.66
- LDCDSSLGRN — within error, 0.722 ± 0.39
- GGAHSY — within error, 0.233 ± 0.5
- EESSPEAWSVRERTAGVFVF — within error, -0.09 ± 0.86
- ITKSRLWHDWLTRRVMTTDC — within error, -0.241 ± 1.4
- VFTACVCGRVEDISDCVPAL — within error, -0.071 ± 0.76
- VMPRTES — within error, 0.408 ± 0.9
- RFSQWLPFWSVGGELQSCFC — within error, 0.239 ± 0.68
- RLTLLRLVLV — within error, 0.945 ± 0.51
- RPFLIIKLLGVGLSVKPNCG — within error, -0.158 ± 0.64
- TQHRRLVSRSQEFNVTQLKW — higher, 2.3 ± 0.27
- LVFVFWLKVEPPMLSTCMSK — within error, -1.16 ± 2.7
- TYSWEDCTYGITPSGTYRSN — higher, 1.33 ± 0.38
- WNNGVLLNRV — within error, 0.792 ± 0.41
- TLEFLMPSYLFHLGRMVNLS — within error, -0.927 ± 1.4
- CTADWLRDPRVGVRGPEGGG — within error, 0.273 ± 0.3
- YQQSCWVLYGTNLRYSNQSW — higher, 1.74 ± 0.14
- YSARLLSERIKWHFTLMMND — within error, 0.41 ± 0.36
- ACWFMCFYRFPAAWY — within error, 0.079 ± 0.3
- DDCESFEMRAFM — within error, 1 ± 0.55
- FVKNSKHYRPFLNGSKRM — within error, 0.475 ± 0.83
- HSGSDSAITVVSLGIRE — within error, -0.19 ± 0.91
- ALSYGIVAMMVVIGPGIVVC — within error, 0.388 ± 0.27
- LLCSKCGFTDQFQS — within error, -1.09 ± 1.2
- IMWSKENWDGG — within error, -0.649 ± 0.44
- GHCGPEKREIDVAGVWVERS — within error, -0.098 ± 1.3
- RMIIYNKYRCNSYLTNMGFG — higher, 2 ± 0.34
- ALRIHGLCFEVVCMRIWSRR — within error, 0.436 ± 0.46
- NRCRDCREVYIKFPTWAWSW — within error, -0.253 ± 0.43
- LRHTCVRPSWSNAIFMPNSA — within error, 0.834 ± 0.57
- IKNKGRYVFETPGL — within error, 0.13 ± 0.87
- GSTFVGAIKQPIVCWIESGN — within error, -1.32 ± 1.2
- THARMKFLWFARF — within error, -0.282 ± 0.83
- SGWSYRRAGRHWMAMMGNKF — within error, -0.04 ± 0.34
- VWRSFKSMHSHRSNSNALWL — higher, 1.96 ± 0.6
- FFIETVYATKNYKHW — higher, 2.76 ± 0.11
- VVLCSVLTFDPSAEHLCTLV — higher, 6.44 ± 0.066
- WCVFAFMKSQQCK — within error, -0.112 ± 0.22

In the case of IYEILKVTS, the amyloid nucleation score is reported as “inactive”.
For LDARKKARMWRNTIDMDELV, the amyloid nucleation score was “inactive”.
For FDRHPGTYCDVKLLCREHSA, the amyloid nucleation score was “inactive”.
With DASGNYWGWKLWGDQGERGY the amyloid nucleation score was “inactive”.
With SMIGRSCYEV the amyloid nucleation score was “inactive”.
With HEYNCRG the amyloid nucleation score was “inactive”.
With SKAWNRAGELVVSCTMVS the amyloid nucleation score was “inactive”.
For HVSVRSLRAVGVLRRRCGNG, the amyloid nucleation score was “inactive”.
In the case of MLFCVTRSVFSENCSLSLCT, the amyloid nucleation score is reported as “inactive”.
With PTTFVENIAWRRGSTSCLCG the amyloid nucleation score was “inactive”.
With TYHFIYEWISLTIT the amyloid nucleation score was “inactive”.
With GRILYEAYTPVERVYAWCSA the amyloid nucleation score was “inactive”.
For RYRWRL, the amyloid nucleation score was “inactive”.
